Data on two molecules can be found in EP4442275A1, “ANTI-TYPE II COLLAGEN ANTIBODIES” (ModiQuest B.V., priority 2023, dated 2024).

Assay [1] addresses T1, human cartilage explants (Homo sapiens, UniProt P02458).
T1 construct: From surgical waste material obtained after total knee arthroplasty; from tissue; host or cells: human articular cartilage from joint replacement surgery of OA patients
Kind of assay: Binding of 111In-labeled DTPA-conjugated antibodies to human cartilage explants (gamma counting). The conditions noted are these: Figure 8.

Assay [2] deals with T1, human cartilage explants. Briefly: Binding of DTPA-IrDye 800CW conjugated antibodies to human cartilage with or without trypsin (Odyssey CLX imaging). The settings on record: 4 µg/ml, 4 H, 37°C; preserved regions of OA cartilage; Figure 9. The method, then:
From surgical waste material obtained after total knee arthroplasty (Patient number SMK1186), human cartilage from the macroscopically preserved regions was isolated with a surgical blade, and 6 mm punches were made using a biopsy punch. Human cartilage explants were overnight incubated in DMEM/F12 without FBS supplemented with 10.000 U/mL penicillin/streptomycin at 37°C with 5% CO2. Half of the explants were incubated for 1 H with 2.5% Trypsin-EDTA in PBS at 37°C on a roller in a 50 ml falcon tube. The other half was incubated under the same conditions in PBS. The trypsin-EDTA was replaced by 1% FBS in PBS (to block the enzymatic activity of trypsin), in which the explants were incubated for 15 min. Cartilage explants were washed with PBS (3x 5 min). Three explants/condition were divided over sterile FACS tubes and exposed 4 µg/ml DTPA-IrDye 800CW isotype (2.201a) (substitution ratio IrDye 800CW= 1.54) or DTPA-IrDye 800CW anti-COLL II antibody (MQ4.112 hz3_1) (substitution ratio IrDye 800CW= 1.83) in DMEM/F12 media supplemented with 0.5% BSA (final volume was 1 ml) for 4 H on a roller at 37°C. […]
The explants were transferred to the bottom of wells of a 96-well plate to image with the Odyssey CLX near infrared imaging system. The fluorescent signal was measured in manually drawn ROI around the cartilage explants which was corrected for background signal by the software. […]

For another assay, the target named is T2, human cartilage (Homo sapiens, UniProt P02458).
T2 construct: From surgical waste material obtained after total knee arthroplasty; from tissue; host or cells: human articular cartilage from joint replacement surgery of OA patients
T2 sequence (P02458 182-1241 limits assumed): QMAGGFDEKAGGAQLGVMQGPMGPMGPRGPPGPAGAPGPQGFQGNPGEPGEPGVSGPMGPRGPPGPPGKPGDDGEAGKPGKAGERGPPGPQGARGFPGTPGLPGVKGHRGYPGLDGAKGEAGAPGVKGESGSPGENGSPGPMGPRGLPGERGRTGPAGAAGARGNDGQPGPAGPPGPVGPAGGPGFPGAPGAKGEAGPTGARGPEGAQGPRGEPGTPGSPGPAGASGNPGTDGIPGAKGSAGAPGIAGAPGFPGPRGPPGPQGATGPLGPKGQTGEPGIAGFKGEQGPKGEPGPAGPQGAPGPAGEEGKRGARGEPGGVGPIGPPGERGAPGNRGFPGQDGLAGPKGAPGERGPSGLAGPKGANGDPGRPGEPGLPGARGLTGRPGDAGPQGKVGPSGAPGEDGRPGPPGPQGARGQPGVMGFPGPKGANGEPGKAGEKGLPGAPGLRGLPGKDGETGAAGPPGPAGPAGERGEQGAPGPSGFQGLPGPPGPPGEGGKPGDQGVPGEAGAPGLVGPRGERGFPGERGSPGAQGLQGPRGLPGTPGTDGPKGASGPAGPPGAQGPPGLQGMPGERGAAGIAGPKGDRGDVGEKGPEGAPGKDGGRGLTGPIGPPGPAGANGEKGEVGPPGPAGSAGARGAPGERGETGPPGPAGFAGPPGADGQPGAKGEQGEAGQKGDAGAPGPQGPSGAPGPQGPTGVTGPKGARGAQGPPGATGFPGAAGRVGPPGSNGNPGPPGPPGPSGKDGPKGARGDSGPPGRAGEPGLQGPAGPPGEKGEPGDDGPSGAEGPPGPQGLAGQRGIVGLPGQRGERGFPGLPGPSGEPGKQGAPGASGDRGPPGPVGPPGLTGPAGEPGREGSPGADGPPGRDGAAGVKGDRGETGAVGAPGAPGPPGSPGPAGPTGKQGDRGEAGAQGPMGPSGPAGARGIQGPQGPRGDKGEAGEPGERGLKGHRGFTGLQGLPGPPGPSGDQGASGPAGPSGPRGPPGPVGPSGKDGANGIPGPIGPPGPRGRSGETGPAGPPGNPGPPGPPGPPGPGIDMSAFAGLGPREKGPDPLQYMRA
Kind of assay: Ex vivo binding to human cartilage with different stages of OA-induced damage (Odyssey CLX imaging). The method, then: From surgical waste material obtained after total knee arthroplasty (Patient number SMK1180), human cartilage from the macroscopically preserved, medium damage and severe damaged regions were isolated with a surgical blade. Human cartilage explants were overnight incubated in DMEM/F12 without FBS supplemented with 10.000 U/mL penicillin/streptomycin at 37°C with 5% CO2. Punches (6 mm) were generated using a biopsy punch. Three explants/damage condition were divided over sterile FACS tubes and exposed 4 µg/ml DTPA-IrDye 800CW isotype (2.201a) (substitution ratio IrDye 800CW= 1.54) or DTPA-IrDye 800CW anti-COLL II antibody (MQ4.112 hz3_1) (substitution ratio IrDye 800CW= 1.83) in DMEM/F12 media supplemented with 0.5% BSA (final volume was 1 ml) for 4 H on a roller at 37°C. After this incubation the samples were transferred to 50 ml falcon tubes (1 tube/condition, 3 punches/tube) and washed with PBS (50 ml) at 37°C (1x 30 min), followed by an o/n wash with PBS on a shaker at 4°C.
The explants were transferred to the bottom of wells of a 96-well plate to measure the cartilage associated fluorescence with the Odyssey CLX near infrared imaging system (Figure 11). The cartilage was fixed in formalin for 4 H and thereafter transferred to 70% ethanol until processed/embedded in paraffin. […]

Entries after “also recorded” stand apart in the source; their conditions may differ.

T1 sequence (P02458 182-1241 limits assumed): as above

B1: [^111In]In-DTPA-MQ4.112hz_3_1: MQ4.112hz_3_1 conjugated with DTPA and labeled with 111In (conjugate)
VH: DVQLQESGPGLVKPSETLSLTCAVSGYSITSDYYWHWIRQFPGKGLEWMGYISYDGSNNYNPSLKSRVTISVDTSKNQFSLKLSSVTAADTAVYYCARDDDAMDYWGQGTLVTVSS
VL: DIQMTQSPSSLSASVGDRVTITCRASQDISNYLNWYQQKPGKAPKLLIYYTSRLHSGVPSRFSGSGSGTDFTFTISSLQPEDIATYYCQQGNTLPPTFGQGTKVEIK
Turning to B1, the “cartilage associated radioactivity corrected for their weight, trypsin-damaged human cartilage compared to non-treated explants” value with human cartilage explants [1] (4 µg/ml, 1.5 H, 37°C) was “higher”. For the same molecule, the “cartilage associated radioactivity/gram in trypsin-damaged human cartilage compared to isotype” value in the assay with human cartilage explants [1] (p<0.001, One-way ANOVA) was “higher”.

B2: DTPA-IrDye 800CW anti-COLL II (MQ4.112 hz3_1): MQ4.112hz_3_1 dually conjugated with DTPA and IrDye 800CW, substitution ratio IrDye 800CW= 1.83 (conjugate)
VH: B1 VH
VL: B1 VL
For B2, in the assay with human cartilage explants [2], the “binding (fluorescent signal) to trypsin-induced damaged human cartilage explants compared to untreated explants” value is “increased binding; also recorded: increases”. For the same molecule, the “localization of the fluorescent signal in sections of the explants” value in the assay with human cartilage (Figure 11 bottom, compared with SafO staining) is recorded as “localizes on the spots where visible cartilage damage is present”. In addition, the “binding (fluorescent signal) to cartilage when OA-damage increases” value with human cartilage (macroscopically preserved, medium damage and severe damaged regions, 4 µg/ml, 4 H, Figure 11, listed as DTPA-IrDye 800CW anti-COLL II antibody) is listed as “binds more; also recorded: increases”.
